Values quoted from earlier work as cited in patent publication US20250052762A1, “PEPTIDASE CLEAVABLE SUBSTRATES AND METHODS OF IDENTIFICATION AND USE THEREOF” (Alaunus Biosciences, Inc., priority 2020, published 2025).
“Also recorded” adds a separate entry of the source. Square brackets hold non-standard residues; d marks the D form. Ends that are not written are not given here. * marks the point of attachment. MeOSuc = COC(=O)CCC(=O)*; 2Abz = Nc1ccccc1C(=O)O; dnp = not defined here; SBn = c1ccc(CS*)cc1

Key:
[1] = target: granzyme B (Homo sapiens, UniProt P10144); conditions: for measured catalytic efficiency: candidate natural substrates, fluorescence assay (Boivin et al., 2012)
granzyme B, sequence (P10144 21-247): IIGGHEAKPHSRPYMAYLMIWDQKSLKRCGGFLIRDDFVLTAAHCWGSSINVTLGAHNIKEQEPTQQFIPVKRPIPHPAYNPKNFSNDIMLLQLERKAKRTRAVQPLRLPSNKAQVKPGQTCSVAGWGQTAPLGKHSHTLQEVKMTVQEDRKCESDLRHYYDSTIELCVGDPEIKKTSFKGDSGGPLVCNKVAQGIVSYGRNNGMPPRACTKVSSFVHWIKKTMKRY

[2] = target: MMP14 (Homo sapiens, UniProt P50281); conditions: for Michaelis constant (KM): magnitude in words
[3] = target: T1, neutrophil elastase (Homo sapiens, UniProt P08246)
T1 sequence (P08246 30-267): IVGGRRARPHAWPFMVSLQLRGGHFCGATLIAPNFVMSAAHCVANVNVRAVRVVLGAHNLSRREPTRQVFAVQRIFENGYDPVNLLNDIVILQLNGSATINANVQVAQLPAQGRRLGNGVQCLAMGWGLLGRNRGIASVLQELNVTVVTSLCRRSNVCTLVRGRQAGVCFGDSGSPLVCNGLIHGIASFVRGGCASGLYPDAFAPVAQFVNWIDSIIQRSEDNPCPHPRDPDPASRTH

[4] = magnitude in words, top-most active substrates in BRENDA database
[5] = top-most active substrates in BRENDA database

Q: For “2-aminobenzoyl-IEPDSSMESK-dnp ([2Abz]IEPDSSMESK-dnp; reading uncertain; also: printed as 2-aminobenzoyl-IEPDSSMESK-dnp) [fluorescent tool substrate for granzyme B]”, which estimated catalytic efficiency ([1]; estimated from KM and kcat, fluorescence assay (Sun et al., 2001)) is on record?
A: The estimated catalytic efficiency was 758 mM⁻¹ s⁻¹.

Q: And the “Michaelis constant (KM)” value [1, 4]?
A: The value was “micromolar”.

Q: What about the “turnover number (kcat)” value [1, 5] of the same molecule?
A: The value was 1 to 5 s⁻¹.

Q: For “collagen I alpha-1: collagen I alpha-1 chain, natural substrate of MMP14”, which “Michaelis constant (KM)” value ([2]; BRENDA database) is on record?
A: The value was “piocomolar; also recorded: picomolar”.

Q: For “collagen I alpha-2: collagen I alpha-2 chain, natural substrate of MMP14”, which “Michaelis constant (KM)” value ([2]; BRENDA database) is on record?
A: The value was “piocomolar; also recorded: picomolar”.

Q: For “methoxycoumarin-4-acetyl-Lys-Pro-Leu-Gly-Leu-Lys (2,4-dinitrophenyl)-Ala-Arg-NH2 ({methoxycoumarin‑4‑acetyl}-KPLGLK(2,4‑dinitrophenyl)AR-NH2; not fully specified; printed as methoxycoumarin-4-acetyl-Lys-Pro-Leu-Gly-Leu-Lys (2,4-dinitrophenyl)-Ala-Arg-NH₂)”, which catalytic efficiency ([2]; measured by fluorescence assay, BRENDA database) is on record?
A: The catalytic efficiency was 550 to 2429 mM⁻¹ s⁻¹.

Q: What about the turnover number ([2]; reported in BRENDA database) of the same molecule?
A: The turnover number was 0.33 to 6.8 s⁻¹.

Q: Which results are given for “methoxysuccinyl-Ala-Ala-Pro-Val-thiobenzyl ester (MeOSuc-AAPV-SBn; SMILES COC(=O)CCC(=O)N[C@@H](C)C(=O)N[C@@H](C)C(=O)N1CCC[C@H]1C(=O)N[C@H](C(=O)SCc1ccccc1)C(C)C) [fluorescent tool substrate for neutrophil elastase]”?
A: estimated catalytic efficiency ([3]; estimated from KM and kcat, fluorescence assay (Stein et al., 1987)): 9565 mM⁻¹ s⁻¹; Michaelis constant (KM) [3, 4]: micromolar; turnover number (kcat) [3, 5]: up to 22 s^−1

B1: biglycan: candidate natural substrate of granzyme B (protein, UniProt P21810 38-368, looked up)
Biglycan: DEEASGADTSGVLDPDSVTPTYSAMCPFGCHCHLRVVQCSDLGLKSVPKEISPDTTLLDLQNNDISELRKDDFKGLQHLYALVLVNNKISKIHEKAFSPLRKLQKLYISKNHLVEIPPNLPSSLVELRIHDNRIRKVPKGVFSGLRNMNCIEMGGNPLENSGFEPGAFDGLKLNYLRISEAKLTGIPKDLPETLNELHLDHNKIQAIELEDLLRYSKLYRLGLGHNQIRMIENGSLSFLPTLRELHLDNNKLARVPSGLPDLKLLQVVYLHSNNITKVGVNDFCPMGFGVKRAYYNGISLFNNPVPYWEVQPATFRCVTDRLAIQFGNYKK
Q: Which measured catalytic efficiency [1] does the source give for B1 here?
A: Its measured catalytic efficiency is 1.7 mM⁻¹ s⁻¹.

B2: decorin: candidate natural substrate of granzyme B (protein, UniProt P07585 31-359, looked up)
Decorin: DEASGIGPEVPDDRDFEPSLGPVCPFRCQCHLRVVQCSDLGLDKVPKDLPPDTTLLDLQNNKITEIKDGDFKNLKNLHALILVNNKISKVSPGAFTPLVKLERLYLSKNQLKELPEKMPKTLQELRAHENEITKVRKVTFNGLNQMIVIELGTNPLKSSGIENGAFQGMKKLSYIRIADTNITSIPQGLPPSLTELHLDGNKISRVDAASLKGLNNLAKLGLSFNSISAVDNGSLANTPHLRELHLDNNKLTRVPGGLAEHKYIQVVYLHNNNISVVGSSDFCPPGHNTKKASYSGVSLFSNPVQYWEIQPSTFRCVYVRSAIQLGNYK
Q: Which measured catalytic efficiency [1] does the source give for B2 here?
A: The measured catalytic efficiency was 1 mM⁻¹ s⁻¹.

B3: beta-glycan: candidate natural substrate of granzyme B (protein, UniProt Q03167 21-851, looked up)
Transforming growth factor …: GPEPGALCELSPVSASHPVQALMESFTVLSGCASRGTTGLPQEVHVLNLRTAGQGPGQLQREVTLHLNPISSVHIHHKSVVFLLNSPHPLVWHLKTERLATGVSRLFLVSEGSVVQFSSANFSLTAETEERNFPHGNEHLLNWARKEYGAVTSFTELKIARNIYIKVGEDQVFPPKCNIGKNFLSLNYLAEYLQPKAAEGCVMSSQPQNEEVHIIELITPNSNPYSAFQVDITIDIRPSQEDLEVVKNLILILKCKKSVNWVIKSFDVKGSLKIIAPNSIGFGKESERSMTMTKSIRDDIPSTQGNLVKWALDNGYSPITSYTMAPVANRFHLRLENNAEEMGDEEVHTIPPELRILLDPGALPALQNPPIRGGEGQNGGLPFPFPDISRRVWNEEGEDGLPRPKDPVIPSIQLFPGLREPEEVQGSVDIALSVKCDNEKMIVAVEKDSFQASGYSGMDVTLLDPTCKAKMNGTHFVLESPLNGCGTRPRWSALDGVVYYNSIVIQVPALGDSSGWPDGYEDLESGDNGFPGDMDEGDASLFTRPEIVVFNCSLQQVRNPSSFQEQPHGNITFNMELYNTDLFLVPSQGVFSVPENGHVYVEVSVTKAEQELGFAIQTCFISPYSNPDRMSHYTIIENICPKDESVKFYSPKRVHFPIPQADMDKKRFSFVFKPVFNTSLLFLQCELTLCTKMEKHPQKLPKCVPPDEACTSLDASIIWAMMQNKKTFTKPLAVIHHEAESKEKGPSMKEPNPISPPIFHGLDTLTVMGIAFAAFVIGALLTGALWYIYSHTGETAGRQQVPTSPPASENSSAAHSIGSTQSTPCSSSSTA
Q: With B3 as the molecule, how does the measured catalytic efficiency [1] read?
A: Its measured catalytic efficiency is 5.9 mM⁻¹ s⁻¹.
